For test [1], the target named is HLA-B*15:01. The test is described as follows: IEDB peptide-MHC binding, purified MHC/competitive/radioactivity; filed as Kd, often an IC50 or EC50 that approximates it; ≥ and ≤ were set here for values at or beyond the usual limits of such assays.
Another test addresses HLA-B*15:03. The test is described as above.
The target of the next test is HLA-A*30:01. Described as above.
In another test the target is HLA-A*32:01. Described as above.
The target of test [2] is HLA-B*08:01. The description is as above.
Another test deals with HLA-B*35:01. The description is as above.
In a further test the target is HLA-B*53:01. The test is described as above.
The target in test [3] is HLA-B*07:02. Described as above.
For another test, the target named is HLA-B*51:01. The description is as above.
Test [4] addresses HLA-A*01:01. Put plainly: IEDB peptide-MHC binding, purified MHC/direct/fluorescence; filed as Kd, often an IC50 or EC50 that approximates it; ≥ and ≤ were set here for values at or beyond the usual limits of such assays. As to conditions: source organism: Neisseria gonorrhoeae.
The target of test [5] is HLA-A*02:01. The test is described as above. As to conditions: source organism: Neisseria gonorrhoeae.
The target of the next test is HLA-A*03:01. The description is as above. As to conditions: source organism: Neisseria gonorrhoeae.
The target in a further test is HLA-A*11:01. Described as above. As to conditions: source organism: Neisseria gonorrhoeae.
The next test concerns the target HLA-A*24:03. The description is as above. As to conditions: source organism: Neisseria gonorrhoeae.
Test [6] concerns the target HLA-A*26:01. The test is described as above. As to conditions: source organism: Neisseria gonorrhoeae.
For the next test, the target named is HLA-A*31:01. The description is as above. Particulars: source organism: Neisseria gonorrhoeae.
Another test concerns the target HLA-A*69:01. The test is described as above. As to conditions: source organism: Neisseria gonorrhoeae.
Test [7] has as its target HLA-B*07:02. The test is described as above. Particulars: source organism: Neisseria gonorrhoeae.
Test [8] concerns the target HLA-B*08:01. The test is described as above. Particulars: source organism: Neisseria gonorrhoeae.
For test [9], the target named is HLA-B*15:01. The description is as above. Particulars: source organism: Neisseria gonorrhoeae.
A further test concerns the target HLA-B*27:05. Described as above. As to conditions: source organism: Neisseria gonorrhoeae.
For a further test, the target named is HLA-B*40:01. The test is described as above. As to conditions: source organism: Neisseria gonorrhoeae.
The target of the next test is HLA-B*44:02. The test is described as above.
The target in a further test is HLA-B*58:01. The description is as above. As to conditions: source organism: Neisseria gonorrhoeae.
The next test concerns the target HLA-A*23:01. The test is described as follows: IEDB peptide-MHC binding, purified MHC/competitive/radioactivity; filed as Kd, often an IC50 or EC50 that approximates it; ≥ and ≤ were set here for values at or beyond the usual limits of such assays.
The target in a further test is HLA-A*24:02. The test is described as above. Particulars: source organism: Dengue virus 4 Philippines/H241/1956.
Test [10] addresses HLA-A*01:01. Described as above.
Another test addresses HLA-A*30:02. The test is described as above. Particulars: source organism: Dengue virus 4 Philippines/H241/1956.
Test [11] addresses HLA-A*02:01. Put plainly: IEDB peptide-MHC binding, purified MHC/competitive/fluorescence; filed as Kd, often an IC50 or EC50 that approximates it; ≥ and ≤ were set here for values at or beyond the usual limits of such assays. As to conditions: source organism: Salmonella enterica subsp. enterica serovar Typhi.
Test [12] deals with HLA-A*26:01. The test is described as above. Particulars: source organism: Salmonella enterica subsp. enterica serovar Typhi.
A further test has as its target HLA-A*02:03. Put plainly: IEDB peptide-MHC binding, purified MHC/competitive/radioactivity; filed as Kd, often an IC50 or EC50 that approximates it; ≥ and ≤ were set here for values at or beyond the usual limits of such assays. As to conditions: source organism: Dengue virus 2 Jamaica/1409/1983.
Setting [13] is: source organism: Vaccinia virus WR.
Where [14] appears, read: source organism: Dengue virus 3 Martinique/1243/1999.
Where [15] appears, read: source organism: Dengue virus 1 Brazil/97-11/1997.
Where [16] appears, read: source organism: Dengue virus 2 Jamaica/1409/1983.
Setting [17] is: source organism: Dengue virus 4 Philippines/H241/1956.
Where [18] appears, read: source organism: Vaccinia virus Copenhagen.
The mark [19] stands for this setting: source organism: Dengue virus 3 Singapore/8120/1995.

The values that follow come from the Immune Epitope Database (IEDB).

Where only a bound is given, the exact number is not on record here.

Usually Kd stands for a measure of binding affinity in units of concentration. Turning to VIIMAINVF, the results for the Kd with HLA-B*15:01 [1] (setting [13]) and in the test with HLA-B*15:03 (setting [13]) were 26.4 nM and 2030 nM, respectively.
As for KGKAAAFAK, the Kd with HLA-A*30:01 (setting [13]) is 3.12 nM; with HLA-A*32:01 (setting [13]) it was ≥ 56000 nM; in the test with HLA-B*08:01 [2] (setting [13]), ≥ 77700 nM; with HLA-B*15:01 [1] (setting [13]), 12000 nM; in the test with HLA-B*15:03 (setting [13]) it was 1900 nM.
LPPEKCDTLL: the equilibrium dissociation constant (Kd) is 707 nM with HLA-B*08:01 [2] (setting [14]) and 5980 nM in the test with HLA-B*35:01 (setting [14]).
As for LMLVTPSMAM, in the test with HLA-B*15:01 [1] (setting [15]), the Kd turned out to be 7.08 nM.
HPGFTVIALF: the values for the Kd with HLA-B*35:01 (setting [15]) and with HLA-B*53:01 (setting [15]) were 101 nM and 87.9 nM, respectively.
In the case of QPFLALGFFL, the figures for the Kd in the test with HLA-B*07:02 [3] (setting [14]), in the test with HLA-B*35:01 (setting [14]) and with HLA-B*51:01 (setting [14]) were 577 nM, 200 nM and ≥ 69600 nM, respectively.
Regarding DPASIAARGY, the dissociation constant (Kd) with HLA-B*35:01 (setting [16]) was 5620 nM.
Consider LTFKACDHI, for which the dissociation constant Kd with HLA-A*30:01 (setting [13]) was determined as 81.5 nM; with HLA-A*32:01 (setting [13]), 18800 nM; in the test with HLA-B*08:01 [2] (setting [13]), 838 nM; in the test with HLA-B*15:01 [1] (setting [13]), 973 nM; with HLA-B*15:03 (setting [13]) it was 845 nM.
The like results for KSIEQHPVV were, in that order, 2.7 nM, 1910 nM, 11700 nM, 70.5 nM and 79.6 nM.
Regarding GPLRMVLAF, the Kd with HLA-B*07:02 [3] (setting [17]) was found to be 5.58 nM; with HLA-B*35:01 (setting [17]), 1230 nM; with HLA-B*53:01 (setting [17]), 122 nM.
Turning to GSDKQVVGQ, the Kd with HLA-A*01:01 [4], with HLA-A*02:01 [5], in the test with HLA-A*03:01, with HLA-A*11:01, with HLA-A*24:03 and in the test with HLA-A*26:01 [6] was ≥ 20000 nM each time. Further, the dissociation constant Kd in the test with HLA-A*31:01, with HLA-A*69:01, with HLA-B*07:02 [7], with HLA-B*08:01 [8], in the test with HLA-B*15:01 [9] and with HLA-B*27:05 was ≥ 20000 nM each time. The Kd with HLA-B*40:01, with HLA-B*44:02 (source organism: Neisseria gonorrhoeae) and in the test with HLA-B*58:01 was ≥ 20000 nM each time.
For the sequence ITKINTHLA, the Kd with HLA-A*30:01 (setting [13]) is 14.9 nM; with HLA-A*32:01 (setting [13]), ≥ 77800 nM; in the test with HLA-B*08:01 [2] (setting [13]), ≥ 22100 nM; with HLA-B*15:01 [1] (setting [13]), 2890 nM; with HLA-B*15:03 (setting [13]), ≥ 51400 nM.
Regarding VEGEGLHKL, the Kd with HLA-B*44:02 (source organism: Dengue virus 1 Singapore/S275/1990) was ≥ 20000 nM.
LPDYGELTL: the Kd with HLA-B*07:02 [3] (setting [17]) was found to be 67.8 nM; with HLA-B*35:01 (setting [17]), 100 nM; with HLA-B*51:01 (setting [17]), 1230 nM; with HLA-B*53:01 (setting [17]), 77.1 nM.
As to ISKNAFSCM, the Kd with HLA-B*15:01 [1] (setting [13]) was 78.1 nM.
For LLMRTTWAF, the Kd with HLA-A*23:01 (setting [17]) amounted to 75.4 nM; in the test with HLA-A*24:02, 24.4 nM; with HLA-A*32:01 (setting [17]) it was 1.69 nM; with HLA-B*08:01 [2] (setting [17]) it was 54.7 nM; with HLA-B*15:01 [1] (setting [17]), 1.08 nM.
RPTPTGTVM: the Kd in the test with HLA-B*07:02 [3] (setting [14]) is 1.98 nM; in the test with HLA-B*35:01 (setting [14]), 1430 nM.
With TVIDLDPIPY, the Kd in the test with HLA-A*01:01 [10] (setting [16]) turned out to be 1540 nM; with HLA-B*15:01 [1] (setting [16]), 1.83 nM.
Regarding IVIGVGDSAL, the Kd with HLA-B*15:01 [1] (setting [17]) was 27.8 nM.
Take KSSPETQQM: the Kd was found to be 1130 nM with HLA-A*30:01 (setting [13]); 464 nM with HLA-A*32:01 (setting [13]); 2350 nM with HLA-B*08:01 [2] (setting [13]); 30.4 nM with HLA-B*15:01 [1] (setting [13]); 108 nM with HLA-B*15:03 (setting [13]).
Turning to RRLLKFRVE, the Kd with HLA-A*30:01 (setting [18]) was 1040 nM; in the test with HLA-A*32:01 (setting [18]), ≥ 34900 nM; in the test with HLA-B*08:01 [2] (setting [18]), 128 nM; with HLA-B*15:01 [1] (setting [18]) it was ≥ 55000 nM; with HLA-B*15:03 (setting [18]), 14900 nM.
As to RPMPGTRKVM, the Kd with HLA-B*07:02 [3] (setting [19]) is 1.13 nM; with HLA-B*35:01 (setting [19]), 8170 nM.
Regarding KLVMAFIAF, the Kd with HLA-A*23:01 (setting [15]) stood at 4820 nM; in the test with HLA-A*32:01 (setting [15]), 1180 nM; with HLA-B*15:01 [1] (setting [15]), 1.39 nM.
Consider RAKGSRAIWY, for which the Kd with HLA-A*30:02 came to 77 nM; with HLA-B*15:01 [1] (setting [17]), 36.1 nM.
As for HVAAFSSLI, the Kd was found to be 61.3 nM in the test with HLA-A*02:01 [11] and 57.5 nM with HLA-A*26:01 [12].
For the sequence SIIVLFQRF, the Kd in the test with HLA-B*08:01 [2] (setting [13]) came out at 8550 nM; with HLA-B*15:01 [1] (setting [13]) it was 1.09 nM.
Take LESQHIISF: the Kd with HLA-B*15:01 [1] (setting [18]) is 57.1 nM; in the test with HLA-B*15:03 (setting [18]) it was 28.4 nM.
On to FPTSRTTWSI, for which the Kd stood at 55.5 nM in the test with HLA-B*07:02 [3] (setting [17]), 327 nM in the test with HLA-B*35:01 (setting [17]), 184 nM in the test with HLA-B*51:01 (setting [17]) and 16.4 nM with HLA-B*53:01 (setting [17]).
Consider NATDTWVTY, for which the results for the Kd in the test with HLA-A*01:01 [10] (setting [15]) and in the test with HLA-B*35:01 (setting [15]) were 144 nM and 20.9 nM, respectively.
Regarding LLYMFPNLF, the Kd with HLA-A*32:01 (setting [13]) was 89.7 nM; with HLA-B*15:03 (setting [13]), 0.109 nM.
Take SKSRRLNLF: the Kd with HLA-B*15:03 (setting [13]) came to 2.36 nM.
Regarding LLVQRVTSV, the Kd in the test with HLA-B*15:03 (setting [18]) was 285 nM.
With ILAAVSVSPL, the Kd in the test with HLA-A*02:03 was 13 nM; in the test with HLA-B*15:01 [1] (setting [16]) it was 28.9 nM.
On to FIRYRMHPM, for which the Kd with HLA-A*30:01 (setting [13]) was 2790 nM; in the test with HLA-A*32:01 (setting [13]), 14300 nM; in the test with HLA-B*08:01 [2] (setting [13]) it was 0.208 nM; with HLA-B*15:01 [1] (setting [13]) it was 1.22 nM; with HLA-B*15:03 (setting [13]), 21.6 nM.
With LQRKHGGSL, the Kd turned out to be 58.2 nM in the test with HLA-B*07:02 [3] (setting [17]), 57.4 nM in the test with HLA-B*08:01 [2] (setting [17]) and 26.2 nM in the test with HLA-B*15:01 [1] (setting [17]).
